The results in this text go back to patent US20180009871A1 (INTARCIA THERAPEUTICS, published 2018).

Test [1] concerns the target human glucagon receptor (GCGR) (human, UniProt P47871 26-477). Nature of the test: cell-based or functional assay.
The target in test [2] is human GLP-1 receptor (GLP-1R) (human, UniProt P43220 24-463). Description: cell-based or functional assay.

Where no end group is shown, it is not given here. [ ]: non-standard residue; d: D form. Aib = CC(C)(N)C(=O)O

Sequence of human GLP-1 receptor (GLP-1R) (P43220 24-463): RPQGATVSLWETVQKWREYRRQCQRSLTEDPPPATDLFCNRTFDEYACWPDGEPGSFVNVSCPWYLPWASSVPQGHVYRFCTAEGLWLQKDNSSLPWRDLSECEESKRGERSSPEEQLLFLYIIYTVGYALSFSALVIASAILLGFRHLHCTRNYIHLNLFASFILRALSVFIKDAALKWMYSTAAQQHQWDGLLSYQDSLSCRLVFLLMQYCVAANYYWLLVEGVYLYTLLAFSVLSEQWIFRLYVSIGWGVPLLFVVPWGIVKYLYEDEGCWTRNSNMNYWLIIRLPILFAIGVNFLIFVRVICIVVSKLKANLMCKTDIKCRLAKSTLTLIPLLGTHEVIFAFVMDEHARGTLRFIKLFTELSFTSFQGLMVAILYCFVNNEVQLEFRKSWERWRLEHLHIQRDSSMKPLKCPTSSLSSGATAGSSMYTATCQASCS

B1: Compound A30 (peptide)
peptide: YSHGTFTSDYSKYLD[Aib]KRAQEFV[Aib]WLEDEPSKGAPPPS-OH
modifications: N-terminus assumed
SMILES: CC(C)C[C@H](NC(=O)[C@H](Cc1ccc(O)cc1)NC(=O)[C@H](CCCCN)NC(=O)[C@H](CO)NC(=O)[C@H](Cc1ccc(O)cc1)NC(=O)[C@H](CC(=O)O)NC(=O)[C@H](CO)NC(=O)[C@@H](NC(=O)[C@H](Cc1ccccc1)NC(=O)[C@@H](NC(=O)CNC(=O)[C@H](Cc1c[nH]cn1)NC(=O)[C@H](CO)NC(=O)[C@@H](N)Cc1ccc(O)cc1)[C@@H](C)O)[C@@H](C)O)C(=O)N[C@@H](CC(=O)O)C(=O)NC(C)(C)C(=O)N[C@@H](CCCCN)C(=O)N[C@@H](CCCNC(=N)N)C(=O)N[C@@H](C)C(=O)N[C@@H](CCC(N)=O)C(=O)N[C@@H](CCC(=O)O)C(=O)N[C@@H](Cc1ccccc1)C(=O)N[C@H](C(=O)NC(C)(C)C(=O)N[C@@H](Cc1c[nH]c2ccccc12)C(=O)N[C@@H](CC(C)C)C(=O)N[C@@H](CCC(=O)O)C(=O)N[C@@H](CC(=O)O)C(=O)N[C@@H](CCC(=O)O)C(=O)N1CCC[C@H]1C(=O)N[C@@H](CO)C(=O)N[C@@H](CCCCN)C(=O)NCC(=O)N[C@@H](C)C(=O)N1CCC[C@H]1C(=O)N1CCC[C@H]1C(=O)N1CCC[C@H]1C(=O)N[C@@H](CO)C(=O)O)C(C)C
On to B1, for which the “hGCGR pEC50 (cAMP)” value in test [1] is 10.9 pEC50. For the same molecule, in test [2], the “hGLP1 pEC50 (cAMP)” value was less than 9 pEC50.

B2: Compound A28 (peptide)
peptide: YSHGTFTSDYSKYLD[Aib]KRAQEFV[Aib]WLEDEGPSSGAPPPS-OH
modifications: N-terminus assumed
SMILES: CC(C)C[C@H](NC(=O)[C@H](Cc1ccc(O)cc1)NC(=O)[C@H](CCCCN)NC(=O)[C@H](CO)NC(=O)[C@H](Cc1ccc(O)cc1)NC(=O)[C@H](CC(=O)O)NC(=O)[C@H](CO)NC(=O)[C@@H](NC(=O)[C@H](Cc1ccccc1)NC(=O)[C@@H](NC(=O)CNC(=O)[C@H](Cc1c[nH]cn1)NC(=O)[C@H](CO)NC(=O)[C@@H](N)Cc1ccc(O)cc1)[C@@H](C)O)[C@@H](C)O)C(=O)N[C@@H](CC(=O)O)C(=O)NC(C)(C)C(=O)N[C@@H](CCCCN)C(=O)N[C@@H](CCCNC(=N)N)C(=O)N[C@@H](C)C(=O)N[C@@H](CCC(N)=O)C(=O)N[C@@H](CCC(=O)O)C(=O)N[C@@H](Cc1ccccc1)C(=O)N[C@H](C(=O)NC(C)(C)C(=O)N[C@@H](Cc1c[nH]c2ccccc12)C(=O)N[C@@H](CC(C)C)C(=O)N[C@@H](CCC(=O)O)C(=O)N[C@@H](CC(=O)O)C(=O)N[C@@H](CCC(=O)O)C(=O)NCC(=O)N1CCC[C@H]1C(=O)N[C@@H](CO)C(=O)N[C@@H](CO)C(=O)NCC(=O)N[C@@H](C)C(=O)N1CCC[C@H]1C(=O)N1CCC[C@H]1C(=O)N1CCC[C@H]1C(=O)N[C@@H](CO)C(=O)O)C(C)C
Turning to B2, the “hGCGR pEC50 (cAMP)” value in test [1] was 12.2 pEC50. Further, the “hGLP1 pEC50 (cAMP)” value in test [2] was less than 9 pEC50.

B3: Compound A34 (peptide)
peptide: YTHGTFTSDHSKWLD[Aib]KRAQEFV[Aib]WLEDEPSSGAPPPS-OH
modifications: N-terminus assumed
SMILES: CC(C)C[C@H](NC(=O)[C@H](Cc1c[nH]c2ccccc12)NC(=O)[C@H](CCCCN)NC(=O)[C@H](CO)NC(=O)[C@H](Cc1c[nH]cn1)NC(=O)[C@H](CC(=O)O)NC(=O)[C@H](CO)NC(=O)[C@@H](NC(=O)[C@H](Cc1ccccc1)NC(=O)[C@@H](NC(=O)CNC(=O)[C@H](Cc1c[nH]cn1)NC(=O)[C@@H](NC(=O)[C@@H](N)Cc1ccc(O)cc1)[C@@H](C)O)[C@@H](C)O)[C@@H](C)O)C(=O)N[C@@H](CC(=O)O)C(=O)NC(C)(C)C(=O)N[C@@H](CCCCN)C(=O)N[C@@H](CCCNC(=N)N)C(=O)N[C@@H](C)C(=O)N[C@@H](CCC(N)=O)C(=O)N[C@@H](CCC(=O)O)C(=O)N[C@@H](Cc1ccccc1)C(=O)N[C@H](C(=O)NC(C)(C)C(=O)N[C@@H](Cc1c[nH]c2ccccc12)C(=O)N[C@@H](CC(C)C)C(=O)N[C@@H](CCC(=O)O)C(=O)N[C@@H](CC(=O)O)C(=O)N[C@@H](CCC(=O)O)C(=O)N1CCC[C@H]1C(=O)N[C@@H](CO)C(=O)N[C@@H](CO)C(=O)NCC(=O)N[C@@H](C)C(=O)N1CCC[C@H]1C(=O)N1CCC[C@H]1C(=O)N1CCC[C@H]1C(=O)N[C@@H](CO)C(=O)O)C(C)C
Consider B3, for which the “hGCGR pEC50 (cAMP)” value in test [1] amounted to 10.3 pEC50. Further, the “hGLP1 pEC50 (cAMP)” value in test [2] was less than 9 pEC50.

B4: Compound A32 (peptide)
peptide: YTHGTFTSDYSKWLD[Aib]KRAQEFV[Aib]WLEDEPSSGAPPPS-OH
modifications: N-terminus assumed
SMILES: CC(C)C[C@H](NC(=O)[C@H](Cc1c[nH]c2ccccc12)NC(=O)[C@H](CCCCN)NC(=O)[C@H](CO)NC(=O)[C@H](Cc1ccc(O)cc1)NC(=O)[C@H](CC(=O)O)NC(=O)[C@H](CO)NC(=O)[C@@H](NC(=O)[C@H](Cc1ccccc1)NC(=O)[C@@H](NC(=O)CNC(=O)[C@H](Cc1c[nH]cn1)NC(=O)[C@@H](NC(=O)[C@@H](N)Cc1ccc(O)cc1)[C@@H](C)O)[C@@H](C)O)[C@@H](C)O)C(=O)N[C@@H](CC(=O)O)C(=O)NC(C)(C)C(=O)N[C@@H](CCCCN)C(=O)N[C@@H](CCCNC(=N)N)C(=O)N[C@@H](C)C(=O)N[C@@H](CCC(N)=O)C(=O)N[C@@H](CCC(=O)O)C(=O)N[C@@H](Cc1ccccc1)C(=O)N[C@H](C(=O)NC(C)(C)C(=O)N[C@@H](Cc1c[nH]c2ccccc12)C(=O)N[C@@H](CC(C)C)C(=O)N[C@@H](CCC(=O)O)C(=O)N[C@@H](CC(=O)O)C(=O)N[C@@H](CCC(=O)O)C(=O)N1CCC[C@H]1C(=O)N[C@@H](CO)C(=O)N[C@@H](CO)C(=O)NCC(=O)N[C@@H](C)C(=O)N1CCC[C@H]1C(=O)N1CCC[C@H]1C(=O)N1CCC[C@H]1C(=O)N[C@@H](CO)C(=O)O)C(C)C
B4: the “hGCGR pEC50 (cAMP)” value in test [1] is 12.5 pEC50. Besides, the “hGLP1 pEC50 (cAMP)” value in test [2] was less than 9 pEC50.

B5: Compound A33 (peptide)
peptide: YSHGTFTSDHSKWLD[Aib]KRAQEFV[Aib]WLEDEPSSGAPPPS-OH
modifications: N-terminus assumed
SMILES: CC(C)C[C@H](NC(=O)[C@H](Cc1c[nH]c2ccccc12)NC(=O)[C@H](CCCCN)NC(=O)[C@H](CO)NC(=O)[C@H](Cc1c[nH]cn1)NC(=O)[C@H](CC(=O)O)NC(=O)[C@H](CO)NC(=O)[C@@H](NC(=O)[C@H](Cc1ccccc1)NC(=O)[C@@H](NC(=O)CNC(=O)[C@H](Cc1c[nH]cn1)NC(=O)[C@H](CO)NC(=O)[C@@H](N)Cc1ccc(O)cc1)[C@@H](C)O)[C@@H](C)O)C(=O)N[C@@H](CC(=O)O)C(=O)NC(C)(C)C(=O)N[C@@H](CCCCN)C(=O)N[C@@H](CCCNC(=N)N)C(=O)N[C@@H](C)C(=O)N[C@@H](CCC(N)=O)C(=O)N[C@@H](CCC(=O)O)C(=O)N[C@@H](Cc1ccccc1)C(=O)N[C@H](C(=O)NC(C)(C)C(=O)N[C@@H](Cc1c[nH]c2ccccc12)C(=O)N[C@@H](CC(C)C)C(=O)N[C@@H](CCC(=O)O)C(=O)N[C@@H](CC(=O)O)C(=O)N[C@@H](CCC(=O)O)C(=O)N1CCC[C@H]1C(=O)N[C@@H](CO)C(=O)N[C@@H](CO)C(=O)NCC(=O)N[C@@H](C)C(=O)N1CCC[C@H]1C(=O)N1CCC[C@H]1C(=O)N1CCC[C@H]1C(=O)N[C@@H](CO)C(=O)O)C(C)C
Take B5: in test [1], the “hGCGR pEC50 (cAMP)” value was determined as 10.9 pEC50. Besides, the “hGLP1 pEC50 (cAMP)” value in test [2] is less than 9 pEC50.

B6: Compound A31 (peptide)
peptide: YSHGTFTSDYSKYLD[Aib]KRAQEFV[Aib]WLEDEPESGAPPPS-OH
modifications: N-terminus assumed
SMILES: CC(C)C[C@H](NC(=O)[C@H](Cc1ccc(O)cc1)NC(=O)[C@H](CCCCN)NC(=O)[C@H](CO)NC(=O)[C@H](Cc1ccc(O)cc1)NC(=O)[C@H](CC(=O)O)NC(=O)[C@H](CO)NC(=O)[C@@H](NC(=O)[C@H](Cc1ccccc1)NC(=O)[C@@H](NC(=O)CNC(=O)[C@H](Cc1c[nH]cn1)NC(=O)[C@H](CO)NC(=O)[C@@H](N)Cc1ccc(O)cc1)[C@@H](C)O)[C@@H](C)O)C(=O)N[C@@H](CC(=O)O)C(=O)NC(C)(C)C(=O)N[C@@H](CCCCN)C(=O)N[C@@H](CCCNC(=N)N)C(=O)N[C@@H](C)C(=O)N[C@@H](CCC(N)=O)C(=O)N[C@@H](CCC(=O)O)C(=O)N[C@@H](Cc1ccccc1)C(=O)N[C@H](C(=O)NC(C)(C)C(=O)N[C@@H](Cc1c[nH]c2ccccc12)C(=O)N[C@@H](CC(C)C)C(=O)N[C@@H](CCC(=O)O)C(=O)N[C@@H](CC(=O)O)C(=O)N[C@@H](CCC(=O)O)C(=O)N1CCC[C@H]1C(=O)N[C@@H](CCC(=O)O)C(=O)N[C@@H](CO)C(=O)NCC(=O)N[C@@H](C)C(=O)N1CCC[C@H]1C(=O)N1CCC[C@H]1C(=O)N1CCC[C@H]1C(=O)N[C@@H](CO)C(=O)O)C(C)C
In the case of B6, the “hGCGR pEC50 (cAMP)” value in test [1] was found to be 11.7 pEC50. For the same molecule, the “hGLP1 pEC50 (cAMP)” value in test [2] is less than 9 pEC50.

B7: Compound A29 (peptide)
peptide: YSHGTFTSDYSKYLD[Aib]KRAQEFV[Aib]WLEDEPKSGAPPPS-OH
modifications: N-terminus assumed
SMILES: CC(C)C[C@H](NC(=O)[C@H](Cc1ccc(O)cc1)NC(=O)[C@H](CCCCN)NC(=O)[C@H](CO)NC(=O)[C@H](Cc1ccc(O)cc1)NC(=O)[C@H](CC(=O)O)NC(=O)[C@H](CO)NC(=O)[C@@H](NC(=O)[C@H](Cc1ccccc1)NC(=O)[C@@H](NC(=O)CNC(=O)[C@H](Cc1c[nH]cn1)NC(=O)[C@H](CO)NC(=O)[C@@H](N)Cc1ccc(O)cc1)[C@@H](C)O)[C@@H](C)O)C(=O)N[C@@H](CC(=O)O)C(=O)NC(C)(C)C(=O)N[C@@H](CCCCN)C(=O)N[C@@H](CCCNC(=N)N)C(=O)N[C@@H](C)C(=O)N[C@@H](CCC(N)=O)C(=O)N[C@@H](CCC(=O)O)C(=O)N[C@@H](Cc1ccccc1)C(=O)N[C@H](C(=O)NC(C)(C)C(=O)N[C@@H](Cc1c[nH]c2ccccc12)C(=O)N[C@@H](CC(C)C)C(=O)N[C@@H](CCC(=O)O)C(=O)N[C@@H](CC(=O)O)C(=O)N[C@@H](CCC(=O)O)C(=O)N1CCC[C@H]1C(=O)N[C@@H](CCCCN)C(=O)N[C@@H](CO)C(=O)NCC(=O)N[C@@H](C)C(=O)N1CCC[C@H]1C(=O)N1CCC[C@H]1C(=O)N1CCC[C@H]1C(=O)N[C@@H](CO)C(=O)O)C(C)C
As to B7, in test [1], the “hGCGR pEC50 (cAMP)” value was determined as 11.1 pEC50. The “hGLP1 pEC50 (cAMP)” value in test [2] was less than 9 pEC50.
